IntAct's records for PubMed 17525332

B1: DNA replication complex GINS protein PSF2 (Homo sapiens), Q9Y248 (parent)
chain: MDAAEVEFLAEKELVTIIPNFSLDKIYLIGGDLGPFNPGLPVEVPLWLAINLKQRQKCRLLPPEWMDVEKLEKMRDHERKEETFTPMPSPYYMELTKLLLNHASDNIPKADEIRTLVKDMWDTRIAKLRVSADSFVRQQEAHAKLDNLTLMEINTSGTFLTQALNHMYKLRTNLQPLESTQSQDF
B2: Zinc finger CCHC domain-containing protein 8 (Homo sapiens), Q6NZY4 (parent)
chain: MAAEVYFGDLELFEPFDHPEESIPKPVHTRFKDDDGDEEDENGVGDAELRERLRQCEETIEQLRAENQELKRKLNILTRPSGILVNDTKLDGPILQILFMNNAISKQYHQEIEEFVSNLVKRFEEQQKNDVEKTSFNLLPQPSSIVLEEDHKVEESCAIKNNKEAFSVVGSVLYFTNFCLDKLGQPLLNENPQLSEGWEIPKYHQVFSHIVSLEGQEIQVKAKRPKPHCFNCGSEEHQMKDCPMPRNAARISEKRKEYMDACGEANNQNFQQRYHAEEVEERFGRFKPGVISEELQDALGVTDKSLPPFIYRMRQLGYPPGWLKEAELENSGLALYDGKDGTDGETEVGEIQQNKSVTYDLSKLVNYPGFNISTPRGIPDEWRIFGSIPMQACQQKDVFANYLTSNFQAPGVKSGNKRSSSHSSPGSPKKQKNESNSAGSPADMELDSDMEVPHGSQSSESFQFQPPLPPDTPPLPRGTPPPVFTPPLPKGTPPLTPSDSPQTRTASGAVDEDALTLEELEEQQRRIWAALEQAESVNSDSDVPVDTPLTGNSVASSPCPNELDLPVPEGKTSEKQTLDEPEVPEIFTKKSEAGHASSPDSEVTSLCQKEKAELAPVNTEGALLDNGSVVPNCDISNGGSQKLFPADTSPSTATKIHSPIPDMSKFATGITPFEFENMAESTGMYLRIRSLLKNSPRNQQKNKKASE
B3: Origin recognition complex subunit 3 (Homo sapiens), Q9UBD5 (parent)
chain: MATSSMSKGCFVFKPNSKKRKISLPIEDYFNKGKNEPEDSKLRFETYQLIWQQMKSENERLQEELNKNLFDNLIEFLQKSHSGFQKNSRDLGGQIKLREIPTAALVLGVNVTDHDLTFGSLTEALQNNVTPYVVSLQAKDCPDMKHFLQKLISQLMDCCVDIKSKEEESVHVTQRKTHYSMDSLSSWYMTVTQKTDPKMLSKKRTTSSQWQSPPVVVILKDMESFATKVLQDFIIISSQHLHEFPLILIFGIATSPIIIHRLLPHAVSSLLCIELFQSLSCKEHLTTVLDKLLLTTQFPFKINEKVLQVLTNIFLYHDFSVQNFIKGLQLSLLEHFYSQPLSVLCCNLPEAKRRINFLSNNQCENIRRLPSFRRYVEKQASEKQVALLTNERYLKEETQLLLENLHVYHMNYFLVLRCLHKFTSSLPKYPLGRQIRELYCTCLEKNIWDSEEYASVLQLLRMLAKDELMTILEKCFKVFKSYCENHLGSTAKRIEEFLAQFQSLDETKEEEDASGSQPKGLQKTDLYHLQKSLLEMKELRRSKKQTKFEVLRENVVNFIDCLVREYLLPPETQPLHEVVYFSAAHALREHLNAAPRIALHTALNNPYYYLKNEALKSEEGCIPNIAPDICIAYKLHLECSRLINLVDWSEAFATVVTAAEKMDANSATSEEMNEIIHARFIRAVSELELLGFIKPTKQKTDHVARLTWGGC

Variants of: B1
Settings: with chk2_human CHEK2, O96017
Sequence of chk2_human CHEK2, O96017 (O96017 whole entry): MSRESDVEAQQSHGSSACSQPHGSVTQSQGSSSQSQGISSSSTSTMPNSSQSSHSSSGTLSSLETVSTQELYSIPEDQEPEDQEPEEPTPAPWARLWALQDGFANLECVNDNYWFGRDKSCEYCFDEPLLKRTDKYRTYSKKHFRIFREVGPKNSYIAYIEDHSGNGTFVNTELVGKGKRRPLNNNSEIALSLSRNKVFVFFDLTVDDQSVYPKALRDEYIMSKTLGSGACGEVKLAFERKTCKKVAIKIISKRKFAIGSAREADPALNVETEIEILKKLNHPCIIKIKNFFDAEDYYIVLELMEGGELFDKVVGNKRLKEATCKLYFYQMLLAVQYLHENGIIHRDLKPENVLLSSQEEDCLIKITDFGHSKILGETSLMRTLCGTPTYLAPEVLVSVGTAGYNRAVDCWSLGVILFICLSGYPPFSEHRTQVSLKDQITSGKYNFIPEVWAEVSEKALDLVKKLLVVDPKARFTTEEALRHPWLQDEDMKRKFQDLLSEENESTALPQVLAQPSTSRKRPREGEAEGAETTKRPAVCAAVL
In the case of T180A;S182A, the “effect of a mutation on the interaction” value is reported as “disrupting interaction”.

Variants of: B2
Settings: with brca1_human BRCA1, P38398
Target sequence in this assay (P38398 whole entry, looked up): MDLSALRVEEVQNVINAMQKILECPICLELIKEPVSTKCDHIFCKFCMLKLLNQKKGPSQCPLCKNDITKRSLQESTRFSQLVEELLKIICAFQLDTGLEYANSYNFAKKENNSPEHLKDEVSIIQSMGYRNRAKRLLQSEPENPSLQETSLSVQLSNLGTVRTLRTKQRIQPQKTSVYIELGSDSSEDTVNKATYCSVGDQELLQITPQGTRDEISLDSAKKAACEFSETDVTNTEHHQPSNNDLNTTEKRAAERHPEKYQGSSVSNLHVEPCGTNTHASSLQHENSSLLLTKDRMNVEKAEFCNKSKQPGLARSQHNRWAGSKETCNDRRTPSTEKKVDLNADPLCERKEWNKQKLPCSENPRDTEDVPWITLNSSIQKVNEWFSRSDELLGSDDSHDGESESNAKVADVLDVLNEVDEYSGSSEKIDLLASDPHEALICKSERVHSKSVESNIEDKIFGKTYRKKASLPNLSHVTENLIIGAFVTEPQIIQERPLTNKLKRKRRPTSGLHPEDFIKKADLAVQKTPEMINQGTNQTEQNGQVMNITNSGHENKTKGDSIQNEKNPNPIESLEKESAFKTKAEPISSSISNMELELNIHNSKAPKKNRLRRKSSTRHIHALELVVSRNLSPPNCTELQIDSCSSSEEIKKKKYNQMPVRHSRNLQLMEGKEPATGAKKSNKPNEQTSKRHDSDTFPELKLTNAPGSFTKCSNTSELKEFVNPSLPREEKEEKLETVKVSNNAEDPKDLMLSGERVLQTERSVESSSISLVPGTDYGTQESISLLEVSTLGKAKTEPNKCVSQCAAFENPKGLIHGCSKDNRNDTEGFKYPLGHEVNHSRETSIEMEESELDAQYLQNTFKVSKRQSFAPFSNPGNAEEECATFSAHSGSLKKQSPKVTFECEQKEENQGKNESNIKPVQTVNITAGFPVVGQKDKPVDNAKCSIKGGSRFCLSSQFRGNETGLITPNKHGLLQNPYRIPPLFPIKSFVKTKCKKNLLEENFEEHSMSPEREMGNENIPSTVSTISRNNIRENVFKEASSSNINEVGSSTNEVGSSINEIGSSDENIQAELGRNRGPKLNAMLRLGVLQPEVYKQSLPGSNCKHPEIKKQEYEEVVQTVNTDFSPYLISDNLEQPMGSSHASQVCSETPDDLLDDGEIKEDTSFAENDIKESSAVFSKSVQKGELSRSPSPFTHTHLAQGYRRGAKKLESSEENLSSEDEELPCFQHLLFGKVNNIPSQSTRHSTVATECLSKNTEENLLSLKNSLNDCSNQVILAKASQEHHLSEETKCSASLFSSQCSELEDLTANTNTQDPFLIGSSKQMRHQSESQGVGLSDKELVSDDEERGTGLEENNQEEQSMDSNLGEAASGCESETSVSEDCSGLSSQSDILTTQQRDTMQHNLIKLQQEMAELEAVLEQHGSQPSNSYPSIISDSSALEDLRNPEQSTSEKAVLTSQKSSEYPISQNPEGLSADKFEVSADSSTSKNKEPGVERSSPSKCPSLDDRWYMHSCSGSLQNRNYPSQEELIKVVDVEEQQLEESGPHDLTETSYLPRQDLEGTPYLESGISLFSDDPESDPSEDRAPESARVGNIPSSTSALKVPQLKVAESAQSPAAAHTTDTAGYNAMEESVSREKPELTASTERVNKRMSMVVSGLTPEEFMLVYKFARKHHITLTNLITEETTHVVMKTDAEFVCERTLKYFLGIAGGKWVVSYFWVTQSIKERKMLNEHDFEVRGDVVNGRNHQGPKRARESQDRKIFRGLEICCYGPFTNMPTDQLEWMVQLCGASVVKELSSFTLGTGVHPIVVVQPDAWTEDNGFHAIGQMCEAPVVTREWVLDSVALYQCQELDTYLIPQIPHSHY
In the case of S456A, the “effect of a mutation on the interaction” value is reported as “disrupting interaction”.

Variants of: B3
Settings: with brca1_human BRCA1, P38398
Target sequence in this assay (P38398 whole entry, looked up): as above
In the case of S516A, the “effect of a mutation on the interaction” value is reported as “disrupting interaction”.
